The source of these data is CN111303280A (INST MILITARY MEDICINE ACADEMY MILITARY SCIENCES PLA, dated 2020).

For orientation: EC50 means the concentration that produces a half-maximal response. Higher therefore signals a less potent agent. The Kd is the constant that tells how readily two partners part at equilibrium. Read a high Kd as lower affinity. In general, koff refers to the first-order rate constant of dissociation. Usually kon stands for the second-order rate constant of association.

Assay [1] concerns the target T1, SARS-CoV-2 S2抗原 (重组) (SARS-CoV-2, UniProt P0DTC2 686-1213).
T1 construct: domain: S2
Briefly: ELISA, coated S2 antigen 2 μg/mL. A general note: ELISA stands for enzyme-linked immunosorbent assay.

Assay [2] deals with T2, SARS-CoV-2 RBD抗原 (重组) (SARS-CoV-2, UniProt P0DTC2 319-541).
T2 construct: domain: RBD
Briefly: ELISA, coated RBD antigen 2 μg/mL.

In assay [3] the target is T3, SARS-CoV-2 刺突糖蛋白S (重组S抗原) (SARS-CoV-2, UniProt P0DTC2 16-1213). Put plainly: ELISA, coated S antigen 2 μg/mL, HRP anti-human Fc.
Assay [4] has as its target T3, SARS-CoV-2 刺突糖蛋白S (重组S抗原). Put plainly: BLI (Fortebio Octet QKe), 4A8 captured on AHC sensors, S protein as analyte. In general terms: BLI is a label-free optical method that tracks binding on a fibre tip over time.

B1: 抗SARS-CoV-2全人源单克隆抗体4A8 (antibody, V domains shown)
VH: EVQLVESGAEVKKPGASVKVSCKVSGYTLTELSMHWVRQAPGKGLEWMGGFDPEDGETMYAQKFQGRVTMTEDTSTDTAYMELSSLRSEDTAVYYCATSTAVAGTPDLFDYYYGMDVWGQGTTVTVSS
VL: EIVMTQSPLSSPVTLGQPASISCRSSQSLVHSDGNTYLSWLQQRPGQPPRLLIYKISNRFSGVPDRFSGSGAGTDFTLKISRVEAEDVGVYYCTQATQFPYTFGQGTKVDIK
notes: also called 单抗4A8
Consider B1, for which the binding result in assay [1] is listed as “no binding (tested: 首孔9ug/ml)”. Besides, the binding result in assay [2] is “no binding (tested: 首孔9ug/ml)”. The molecule further came in with a half-maximal effective concentration (EC50) in assay [3] of 4.6 ng/mL. In assay [4], binding was characterised by a dissociation constant (Kd) of 1 nM, the off-rate (koff) is 7.77e-05 s⁻¹ and the kon was determined as 77500 M⁻¹ s⁻¹.
